In experiment [1] the target is T1, human glucose-dependent insulinotropic polypeptide (GIP) receptor (human, UniProt P48546 22-466).
T1 construct: whole, on cells; Assayed as crude membranes of stably transfected CHO cells; also called hGIPR; human GIP receptor
T1 sequence (looked up): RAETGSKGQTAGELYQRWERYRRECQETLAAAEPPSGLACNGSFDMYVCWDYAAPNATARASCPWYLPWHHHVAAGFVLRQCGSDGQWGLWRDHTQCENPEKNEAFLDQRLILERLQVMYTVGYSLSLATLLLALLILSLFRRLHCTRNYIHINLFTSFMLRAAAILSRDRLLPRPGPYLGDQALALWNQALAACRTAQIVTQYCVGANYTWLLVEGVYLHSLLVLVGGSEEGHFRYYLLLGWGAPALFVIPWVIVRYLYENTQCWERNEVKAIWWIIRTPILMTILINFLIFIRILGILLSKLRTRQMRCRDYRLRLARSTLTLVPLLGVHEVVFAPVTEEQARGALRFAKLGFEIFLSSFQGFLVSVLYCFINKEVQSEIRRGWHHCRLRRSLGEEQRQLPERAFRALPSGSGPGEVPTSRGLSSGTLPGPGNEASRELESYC
In words: SPA, displacement of [125I]-GIP from hGIPR membranes, 0.1% bacitracin.

Experiment [2] has as its target T2, human glucagon receptor (human, UniProt P47871 26-477).
T2 construct: whole, on cells; Assayed as crude membranes of stably transfected HEK293 cells; also called hGcgR; GcgR
The experiment can be described thus: SPA, displacement of [125I]-Gcg from hGcgR membranes, 0.1% bacitracin. The essentials: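 Binding buffer: 25 mM HEPES pH 7.4, 2.5 mM CaCl₂, 1 mM MgCl₂, 0.003% Tween-20, protease inhibitors without EDTA. Counted by scintillation after 12 h incubation/settling at room temperature. Four-parameter nonlinear fit; Kᵢ given as geometric mean ± SEM of independent replicates run on different days.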
For orientation: Loss of bound radioactivity is the signal in a displacement assay; it reports binding, not function.

Experiment [3] has as its target T3, human GLP-1 receptor (human, UniProt P43220 24-463).
T3 construct: whole, on cells; Assayed as crude membranes of stably transfected HEK293 cells; also called hGLP1R; hGLP-1R
In words: SPA, displacement of [125I]-GLP-1 from hGLP-1R membranes, 0.1% bacitracin. The essentials:
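Binding buffer: 25 mM HEPES pH 7.4, 2.5 mM CaCl₂, 1 mM MgCl₂, 0.1% bacitracin, 0.003% Tween-20, protease inhibitors without EDTA. Four-parameter nonlinear regression; Kᵢ given as geometric mean ± SEM, n = independent replicates run on different days.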

Broadly, the Ki is the dissociation constant of the complex between target and ligand, obtained from inhibition or displacement. Low values mean higher affinity, high ones lower affinity.

Starred links: 1 amine or outer side, 2 acyl side, 3 side chain; linkers in the order of their positions; H or OH if unused. Non-standard residues stand in square brackets, D forms with d. Groups on a side chain read outwards from the residue. No end group written: not given here. *: point of attachment. C20 diacid = O=C(O)CCCCCCCCCCCCCCCCCCC(=O)*; αMePhe(2-F) = C[C@](N)(Cc1ccccc1F)C(=O)O; γGlu = O=C(O)[C@H](CCC(=O)[*:2])N[*:1]; αMeF = C[C@](N)(Cc1ccccc1)C(=O)O; 4Pal = N[C@@H](Cc1ccncc1)C(=O)O; AEEA = NCCOCCOCC(=O)O; Aib = CC(C)(N)C(=O)O

T2 sequence (P47871 26-477): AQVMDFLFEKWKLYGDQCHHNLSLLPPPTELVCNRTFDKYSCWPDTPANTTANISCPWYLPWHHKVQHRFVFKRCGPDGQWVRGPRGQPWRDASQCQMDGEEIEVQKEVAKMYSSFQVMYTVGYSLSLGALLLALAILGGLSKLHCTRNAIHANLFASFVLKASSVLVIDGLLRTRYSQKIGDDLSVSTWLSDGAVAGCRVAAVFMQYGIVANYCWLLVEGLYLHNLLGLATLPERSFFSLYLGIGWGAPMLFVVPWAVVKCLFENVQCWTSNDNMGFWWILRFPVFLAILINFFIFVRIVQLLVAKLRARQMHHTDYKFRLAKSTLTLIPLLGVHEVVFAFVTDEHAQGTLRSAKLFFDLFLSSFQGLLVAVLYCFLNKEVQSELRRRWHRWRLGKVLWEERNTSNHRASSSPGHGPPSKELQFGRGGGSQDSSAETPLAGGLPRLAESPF

B1: Example 38 (peptide)
peptide: Y[Aib]EGT[αMePhe(2-F)]ISDYSIALDKK([AEEA-AEEA-γGlu-C20 diacid])HQ[Aib]DFVE[4Pal]LLETGPSSGAPPPS-NH2
modifications: N-terminus assumed
SMILES: CC[C@H](C)[C@H](NC(=O)[C@H](CO)NC(=O)[C@H](Cc1ccc(O)cc1)NC(=O)[C@H](CC(=O)O)NC(=O)[C@H](CO)NC(=O)[C@@H](NC(=O)[C@](C)(Cc1ccccc1F)NC(=O)[C@@H](NC(=O)CNC(=O)[C@H](CCC(=O)O)NC(=O)C(C)(C)NC(=O)[C@@H](N)Cc1ccc(O)cc1)[C@@H](C)O)[C@@H](C)CC)C(=O)N[C@@H](C)C(=O)N[C@@H](CC(C)C)C(=O)N[C@@H](CC(=O)O)C(=O)N[C@@H](CCCCN)C(=O)N[C@@H](CCCCNC(=O)COCCOCCNC(=O)COCCOCCNC(=O)CC[C@H](NC(=O)CCCCCCCCCCCCCCCCCCC(=O)O)C(=O)O)C(=O)N[C@@H](Cc1c[nH]cn1)C(=O)N[C@@H](CCC(N)=O)C(=O)NC(C)(C)C(=O)N[C@@H](CC(=O)O)C(=O)N[C@@H](Cc1ccccc1)C(=O)N[C@H](C(=O)N[C@@H](CCC(=O)O)C(=O)N[C@@H](Cc1ccncc1)C(=O)N[C@@H](CC(C)C)C(=O)N[C@@H](CC(C)C)C(=O)N[C@@H](CCC(=O)O)C(=O)N[C@H](C(=O)NCC(=O)N1CCC[C@H]1C(=O)N[C@@H](CO)C(=O)N[C@@H](CO)C(=O)NCC(=O)N[C@@H](C)C(=O)N1CCC[C@H]1C(=O)N1CCC[C@H]1C(=O)N1CCC[C@H]1C(=O)N[C@@H](CO)C(N)=O)[C@@H](C)O)C(C)C
B1: the Ki was 0.0588 nM in experiment [1], 182 nM in experiment [2] and 776 nM in experiment [3].

B2: Example 42 (peptide)
peptide: Y[Aib]EGT[αMeF]ISDYSIALDKK([AEEA-AEEA-γGlu-C20 diacid])HQ[Aib]DFVE[4Pal]LLEQGPSSGAPPPS-NH2
modifications: N-terminus assumed
SMILES: CC[C@H](C)[C@H](NC(=O)[C@H](CO)NC(=O)[C@H](Cc1ccc(O)cc1)NC(=O)[C@H](CC(=O)O)NC(=O)[C@H](CO)NC(=O)[C@@H](NC(=O)[C@](C)(Cc1ccccc1)NC(=O)[C@@H](NC(=O)CNC(=O)[C@H](CCC(=O)O)NC(=O)C(C)(C)NC(=O)[C@@H](N)Cc1ccc(O)cc1)[C@@H](C)O)[C@@H](C)CC)C(=O)N[C@@H](C)C(=O)N[C@@H](CC(C)C)C(=O)N[C@@H](CC(=O)O)C(=O)N[C@@H](CCCCN)C(=O)N[C@@H](CCCCNC(=O)COCCOCCNC(=O)COCCOCCNC(=O)CC[C@H](NC(=O)CCCCCCCCCCCCCCCCCCC(=O)O)C(=O)O)C(=O)N[C@@H](Cc1c[nH]cn1)C(=O)N[C@@H](CCC(N)=O)C(=O)NC(C)(C)C(=O)N[C@@H](CC(=O)O)C(=O)N[C@@H](Cc1ccccc1)C(=O)N[C@H](C(=O)N[C@@H](CCC(=O)O)C(=O)N[C@@H](Cc1ccncc1)C(=O)N[C@@H](CC(C)C)C(=O)N[C@@H](CC(C)C)C(=O)N[C@@H](CCC(=O)O)C(=O)N[C@@H](CCC(N)=O)C(=O)NCC(=O)N1CCC[C@H]1C(=O)N[C@@H](CO)C(=O)N[C@@H](CO)C(=O)NCC(=O)N[C@@H](C)C(=O)N1CCC[C@H]1C(=O)N1CCC[C@H]1C(=O)N1CCC[C@H]1C(=O)N[C@@H](CO)C(N)=O)C(C)C
For B2, the Ki in experiment [1] worked out at 0.0392 nM; in experiment [2], 99.1 nM; in experiment [3], 563 nM.

B3: Example 43 (peptide)
peptide: Y[Aib]EGT[αMeF]ISDYSIALDKK([AEEA-AEEA-γGlu-C20 diacid])HQ[Aib]DFVE[4Pal]LLEAGPSSGAPPPS-NH2
modifications: N-terminus assumed
SMILES: CC[C@H](C)[C@H](NC(=O)[C@H](CO)NC(=O)[C@H](Cc1ccc(O)cc1)NC(=O)[C@H](CC(=O)O)NC(=O)[C@H](CO)NC(=O)[C@@H](NC(=O)[C@](C)(Cc1ccccc1)NC(=O)[C@@H](NC(=O)CNC(=O)[C@H](CCC(=O)O)NC(=O)C(C)(C)NC(=O)[C@@H](N)Cc1ccc(O)cc1)[C@@H](C)O)[C@@H](C)CC)C(=O)N[C@@H](C)C(=O)N[C@@H](CC(C)C)C(=O)N[C@@H](CC(=O)O)C(=O)N[C@@H](CCCCN)C(=O)N[C@@H](CCCCNC(=O)COCCOCCNC(=O)COCCOCCNC(=O)CC[C@H](NC(=O)CCCCCCCCCCCCCCCCCCC(=O)O)C(=O)O)C(=O)N[C@@H](Cc1c[nH]cn1)C(=O)N[C@@H](CCC(N)=O)C(=O)NC(C)(C)C(=O)N[C@@H](CC(=O)O)C(=O)N[C@@H](Cc1ccccc1)C(=O)N[C@H](C(=O)N[C@@H](CCC(=O)O)C(=O)N[C@@H](Cc1ccncc1)C(=O)N[C@@H](CC(C)C)C(=O)N[C@@H](CC(C)C)C(=O)N[C@@H](CCC(=O)O)C(=O)N[C@@H](C)C(=O)NCC(=O)N1CCC[C@H]1C(=O)N[C@@H](CO)C(=O)N[C@@H](CO)C(=O)NCC(=O)N[C@@H](C)C(=O)N1CCC[C@H]1C(=O)N1CCC[C@H]1C(=O)N1CCC[C@H]1C(=O)N[C@@H](CO)C(N)=O)C(C)C
Regarding B3, the inhibition constant (Ki) in experiment [1] is 0.0366 nM; in experiment [2], 285 nM; in experiment [3], 605 nM.

B4: Example 34 (peptide)
peptide: Y[Aib]EGT[αMePhe(2-F)]ISDYSIALDKK([AEEA-AEEA-γGlu-C20 diacid])HQ[Aib]EFVNYLLATGPSSGAPPPS-NH2
modifications: N-terminus assumed
SMILES: CC[C@H](C)[C@H](NC(=O)[C@H](CO)NC(=O)[C@H](Cc1ccc(O)cc1)NC(=O)[C@H](CC(=O)O)NC(=O)[C@H](CO)NC(=O)[C@@H](NC(=O)[C@](C)(Cc1ccccc1F)NC(=O)[C@@H](NC(=O)CNC(=O)[C@H](CCC(=O)O)NC(=O)C(C)(C)NC(=O)[C@@H](N)Cc1ccc(O)cc1)[C@@H](C)O)[C@@H](C)CC)C(=O)N[C@@H](C)C(=O)N[C@@H](CC(C)C)C(=O)N[C@@H](CC(=O)O)C(=O)N[C@@H](CCCCN)C(=O)N[C@@H](CCCCNC(=O)COCCOCCNC(=O)COCCOCCNC(=O)CC[C@H](NC(=O)CCCCCCCCCCCCCCCCCCC(=O)O)C(=O)O)C(=O)N[C@@H](Cc1c[nH]cn1)C(=O)N[C@@H](CCC(N)=O)C(=O)NC(C)(C)C(=O)N[C@@H](CCC(=O)O)C(=O)N[C@@H](Cc1ccccc1)C(=O)N[C@H](C(=O)N[C@@H](CC(N)=O)C(=O)N[C@@H](Cc1ccc(O)cc1)C(=O)N[C@@H](CC(C)C)C(=O)N[C@@H](CC(C)C)C(=O)N[C@@H](C)C(=O)N[C@H](C(=O)NCC(=O)N1CCC[C@H]1C(=O)N[C@@H](CO)C(=O)N[C@@H](CO)C(=O)NCC(=O)N[C@@H](C)C(=O)N1CCC[C@H]1C(=O)N1CCC[C@H]1C(=O)N1CCC[C@H]1C(=O)N[C@@H](CO)C(N)=O)[C@@H](C)O)C(C)C
Consider B4, for which the values for the Ki in experiment [1], in experiment [2] and in experiment [3] were 0.034 nM, 143 nM and 201 nM, respectively.

B5: Example 25 (peptide)
peptide: Y[Aib]EGT[αMeF]ISDYSIALDKK([AEEA-AEEA-γGlu-C20 diacid])HQ[Aib]EFVNWLLAGGPSSGAPPPS-NH2
modifications: N-terminus assumed
SMILES: CC[C@H](C)[C@H](NC(=O)[C@H](CO)NC(=O)[C@H](Cc1ccc(O)cc1)NC(=O)[C@H](CC(=O)O)NC(=O)[C@H](CO)NC(=O)[C@@H](NC(=O)[C@](C)(Cc1ccccc1)NC(=O)[C@@H](NC(=O)CNC(=O)[C@H](CCC(=O)O)NC(=O)C(C)(C)NC(=O)[C@@H](N)Cc1ccc(O)cc1)[C@@H](C)O)[C@@H](C)CC)C(=O)N[C@@H](C)C(=O)N[C@@H](CC(C)C)C(=O)N[C@@H](CC(=O)O)C(=O)N[C@@H](CCCCN)C(=O)N[C@@H](CCCCNC(=O)COCCOCCNC(=O)COCCOCCNC(=O)CC[C@H](NC(=O)CCCCCCCCCCCCCCCCCCC(=O)O)C(=O)O)C(=O)N[C@@H](Cc1c[nH]cn1)C(=O)N[C@@H](CCC(N)=O)C(=O)NC(C)(C)C(=O)N[C@@H](CCC(=O)O)C(=O)N[C@@H](Cc1ccccc1)C(=O)N[C@H](C(=O)N[C@@H](CC(N)=O)C(=O)N[C@@H](Cc1c[nH]c2ccccc12)C(=O)N[C@@H](CC(C)C)C(=O)N[C@@H](CC(C)C)C(=O)N[C@@H](C)C(=O)NCC(=O)NCC(=O)N1CCC[C@H]1C(=O)N[C@@H](CO)C(=O)N[C@@H](CO)C(=O)NCC(=O)N[C@@H](C)C(=O)N1CCC[C@H]1C(=O)N1CCC[C@H]1C(=O)N1CCC[C@H]1C(=O)N[C@@H](CO)C(N)=O)C(C)C
As to B5, the values for the inhibition constant Ki in experiment [1], in experiment [2] and in experiment [3] were 0.0417 nM, 101 nM and 15.8 nM, respectively.

The record behind these values is patent publication US20210032299A1 (Eli Lilly, published 2021).
